The values below come from patent US20230212549A1, “COMPOUNDS COMPRISING A […] LIGAND AND USE THEREOF” (priority 2021, published 2023).

Bridge positions count the residues as written; N and C are the ends.

Common to all, as to assay: radioligand displacement (antagonist radioligand), 10 µM
In one test the target is T1, D1 (h) (human), P21728.
T1 chain: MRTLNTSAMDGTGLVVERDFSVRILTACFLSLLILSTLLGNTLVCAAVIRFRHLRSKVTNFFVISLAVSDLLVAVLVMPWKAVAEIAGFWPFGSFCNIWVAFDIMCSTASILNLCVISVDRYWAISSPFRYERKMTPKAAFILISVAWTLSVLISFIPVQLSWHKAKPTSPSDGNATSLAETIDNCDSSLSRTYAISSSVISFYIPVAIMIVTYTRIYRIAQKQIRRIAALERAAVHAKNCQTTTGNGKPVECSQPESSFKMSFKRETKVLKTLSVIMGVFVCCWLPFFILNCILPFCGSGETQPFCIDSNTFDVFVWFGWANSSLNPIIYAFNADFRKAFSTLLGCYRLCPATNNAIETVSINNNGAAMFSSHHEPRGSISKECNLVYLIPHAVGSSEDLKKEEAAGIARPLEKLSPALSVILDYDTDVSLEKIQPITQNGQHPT
The note with it: remark: other sources report otherwise.

In test [1] the target is beta 2 (h) (human), P07550. Conditions: remark: other sources report otherwise.
For test [2], the target named is T2, alpha 1A (h) (human), P35348.
T2 chain: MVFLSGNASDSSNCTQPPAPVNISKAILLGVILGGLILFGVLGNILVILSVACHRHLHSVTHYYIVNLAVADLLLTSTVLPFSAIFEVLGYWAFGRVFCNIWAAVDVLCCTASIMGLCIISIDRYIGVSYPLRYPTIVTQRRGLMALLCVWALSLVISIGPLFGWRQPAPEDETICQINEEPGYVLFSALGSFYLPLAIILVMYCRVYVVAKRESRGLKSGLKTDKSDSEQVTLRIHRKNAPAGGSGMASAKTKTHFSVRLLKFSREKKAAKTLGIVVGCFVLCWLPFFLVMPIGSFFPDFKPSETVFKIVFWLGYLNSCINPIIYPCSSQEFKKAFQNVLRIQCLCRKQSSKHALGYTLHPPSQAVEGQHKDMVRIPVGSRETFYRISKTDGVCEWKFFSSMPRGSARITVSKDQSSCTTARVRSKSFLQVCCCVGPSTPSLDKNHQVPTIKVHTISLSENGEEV
The note with it: remark: other sources report otherwise.

The target of test [3] is T3, dopamine transporter (h) (human), Q01959.
T3 chain: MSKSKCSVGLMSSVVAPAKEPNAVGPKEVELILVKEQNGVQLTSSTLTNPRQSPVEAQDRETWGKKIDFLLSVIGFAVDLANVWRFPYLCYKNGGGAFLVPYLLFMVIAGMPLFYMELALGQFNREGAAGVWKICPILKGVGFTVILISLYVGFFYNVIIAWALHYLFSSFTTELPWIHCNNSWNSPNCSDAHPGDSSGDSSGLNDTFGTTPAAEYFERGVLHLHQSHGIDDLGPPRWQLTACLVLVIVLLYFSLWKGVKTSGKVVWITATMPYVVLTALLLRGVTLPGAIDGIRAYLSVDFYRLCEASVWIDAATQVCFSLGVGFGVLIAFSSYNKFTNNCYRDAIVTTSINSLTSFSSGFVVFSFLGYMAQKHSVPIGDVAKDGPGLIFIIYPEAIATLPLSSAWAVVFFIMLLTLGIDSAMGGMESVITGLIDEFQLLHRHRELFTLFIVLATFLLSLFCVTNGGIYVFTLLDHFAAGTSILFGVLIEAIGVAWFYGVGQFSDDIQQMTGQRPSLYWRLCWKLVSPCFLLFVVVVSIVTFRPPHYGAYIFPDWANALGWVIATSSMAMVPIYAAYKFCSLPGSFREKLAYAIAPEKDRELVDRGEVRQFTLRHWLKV
The note with it: remark: other sources report otherwise.

The target in the next test is NMDA.
Test [4] has as its target T4, 5-HT3 (h) (human), P46098.
T4 chain: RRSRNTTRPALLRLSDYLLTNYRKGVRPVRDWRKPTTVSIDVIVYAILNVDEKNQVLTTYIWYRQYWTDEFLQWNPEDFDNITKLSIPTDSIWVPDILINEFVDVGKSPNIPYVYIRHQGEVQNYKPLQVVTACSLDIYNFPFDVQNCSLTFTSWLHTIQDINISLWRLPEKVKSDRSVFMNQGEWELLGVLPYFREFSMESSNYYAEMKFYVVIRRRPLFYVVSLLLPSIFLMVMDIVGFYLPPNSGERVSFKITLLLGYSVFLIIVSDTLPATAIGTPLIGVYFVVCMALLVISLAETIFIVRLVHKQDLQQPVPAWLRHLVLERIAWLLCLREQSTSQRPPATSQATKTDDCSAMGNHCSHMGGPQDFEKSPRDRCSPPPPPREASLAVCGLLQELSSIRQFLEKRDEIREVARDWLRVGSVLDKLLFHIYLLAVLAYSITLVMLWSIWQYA
Conditions: remark: other sources report otherwise.

The target of a further test is M3 (h) (human), P20309. Conditions: remark: other sources report otherwise.
Sequence of M3 (h) (human), P20309 (P20309 whole entry): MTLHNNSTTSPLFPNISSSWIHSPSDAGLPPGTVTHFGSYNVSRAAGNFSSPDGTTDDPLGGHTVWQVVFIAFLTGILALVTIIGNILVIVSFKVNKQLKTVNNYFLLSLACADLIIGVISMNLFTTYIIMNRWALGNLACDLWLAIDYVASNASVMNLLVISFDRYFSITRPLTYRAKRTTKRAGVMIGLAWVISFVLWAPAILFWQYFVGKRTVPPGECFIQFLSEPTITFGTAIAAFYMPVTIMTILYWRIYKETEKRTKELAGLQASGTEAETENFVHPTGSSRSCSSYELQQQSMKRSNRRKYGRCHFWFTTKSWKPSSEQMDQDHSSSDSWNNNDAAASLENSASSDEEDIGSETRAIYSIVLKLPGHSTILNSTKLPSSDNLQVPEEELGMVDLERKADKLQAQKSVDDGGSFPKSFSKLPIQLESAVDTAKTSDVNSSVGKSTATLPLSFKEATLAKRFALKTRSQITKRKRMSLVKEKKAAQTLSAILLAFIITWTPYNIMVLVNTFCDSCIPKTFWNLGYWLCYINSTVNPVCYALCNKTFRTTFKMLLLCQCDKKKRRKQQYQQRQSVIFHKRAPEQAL
In another test the target is T5, M1 (h) (human), P11229.
T5 chain: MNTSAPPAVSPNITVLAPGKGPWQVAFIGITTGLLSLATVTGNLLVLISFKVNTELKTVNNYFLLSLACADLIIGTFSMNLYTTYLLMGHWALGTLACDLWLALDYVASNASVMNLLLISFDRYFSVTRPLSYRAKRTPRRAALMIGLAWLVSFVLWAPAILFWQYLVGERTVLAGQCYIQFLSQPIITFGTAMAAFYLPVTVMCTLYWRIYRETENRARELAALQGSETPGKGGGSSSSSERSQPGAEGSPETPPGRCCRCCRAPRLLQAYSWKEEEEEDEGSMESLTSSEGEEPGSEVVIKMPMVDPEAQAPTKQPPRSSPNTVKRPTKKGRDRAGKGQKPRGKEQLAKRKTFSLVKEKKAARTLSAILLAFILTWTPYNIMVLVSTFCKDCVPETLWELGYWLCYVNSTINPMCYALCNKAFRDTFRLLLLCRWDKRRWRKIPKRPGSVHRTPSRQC
Conditions: remark: other sources report otherwise.

Another test has as its target H1 (h) (human), P35367. The note with it: remark: other sources report otherwise.

Sequence of H1 (h) (human), P35367 (P35367 whole entry): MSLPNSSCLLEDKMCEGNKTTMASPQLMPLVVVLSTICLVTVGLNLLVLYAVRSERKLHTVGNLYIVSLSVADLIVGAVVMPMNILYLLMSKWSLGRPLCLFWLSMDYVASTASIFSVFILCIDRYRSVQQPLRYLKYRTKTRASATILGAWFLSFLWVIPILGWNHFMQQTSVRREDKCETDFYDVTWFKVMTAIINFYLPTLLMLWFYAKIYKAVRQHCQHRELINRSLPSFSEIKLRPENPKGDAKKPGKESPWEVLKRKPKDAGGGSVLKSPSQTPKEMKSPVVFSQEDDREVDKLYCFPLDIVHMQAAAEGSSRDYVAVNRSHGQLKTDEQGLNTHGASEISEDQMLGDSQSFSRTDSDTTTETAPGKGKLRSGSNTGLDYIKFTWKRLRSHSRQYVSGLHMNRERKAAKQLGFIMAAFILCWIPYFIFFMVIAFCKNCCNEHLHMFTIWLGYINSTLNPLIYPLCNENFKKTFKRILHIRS

B1: Hex-[Cys(tMeBn(DOTA-AET))-Pro-Pro-Thr-Gln-Phe-Cys]-OH (peptide)
peptide: Hex-CPPTQFC-OH
modifications: bridge 1-7; not fully specified (bridges); printed as Hex-[Cys(tMeBn(DOTA-AET))-Pro-Pro-Thr-Gln-Phe-Cys]-OH
For B1, the % Inhibition of Specific Binding is 7% in the test with D1 (h) (human), P21728; 8% in test [1]; -12% in [2]; 7% in test [3]; 1% in the test with NMDA; 4% in test [4]. The % Inhibition of Specific Binding in the test with M3 (h) (human), P20309 was 1%; with M1 (h) (human), P11229 it was 8%; in the test with H1 (h) (human), P35367, 4%.

B2: Hex-[Cys(tMeBn(DOTA-PP))-Pro-Pro-Thr-Gln-Phe-Cys]-Asp-NH2 (peptide)
peptide: Hex-CPPTQFCD-NH2
modifications: bridge 1-7; not fully specified (bridges); printed as Hex-[Cys(tMeBn(DOTA-PP))-Pro-Pro-Thr-Gln-Phe-Cys]-Asp-NH2
For B2, the % Inhibition of Specific Binding with D1 (h) (human), P21728 worked out at 0%; in test [1], 4%; in test [2], 2%; in test [3] it was 12%; in the test with NMDA it was 9%; in test [4], 2%. Further, the % Inhibition of Specific Binding worked out at 10% in the test with M3 (h) (human), P20309; 6% with M1 (h) (human), P11229; 11% in the test with H1 (h) (human), P35367.
